Measured values: paper PMC7039449, “FMN-dependent oligomerization of putative lactate oxidase from Pediococcus acidilactici” (PLoS ONE, 2020)

Key:
[1] = molecular target: T1, PaLCTO (Pediococcus acidilactici, UniProt E0NE46); assay: X-ray crystallography, […] Å (refolded with FMN: 6RHS, […] Å); SEC; assay type: binding; conditions: FMN in active site; FMN addition turns apo monomer into tetramer
T1 construct: gene lctO; recombinant in E. coli, pNH-TrxT, N-terminal thioredoxin/His tag cut with TEV; 39 kDa monomer, FMN-containing homotetramer (158 kDa)
T1 sequence (E0NE46 1-369): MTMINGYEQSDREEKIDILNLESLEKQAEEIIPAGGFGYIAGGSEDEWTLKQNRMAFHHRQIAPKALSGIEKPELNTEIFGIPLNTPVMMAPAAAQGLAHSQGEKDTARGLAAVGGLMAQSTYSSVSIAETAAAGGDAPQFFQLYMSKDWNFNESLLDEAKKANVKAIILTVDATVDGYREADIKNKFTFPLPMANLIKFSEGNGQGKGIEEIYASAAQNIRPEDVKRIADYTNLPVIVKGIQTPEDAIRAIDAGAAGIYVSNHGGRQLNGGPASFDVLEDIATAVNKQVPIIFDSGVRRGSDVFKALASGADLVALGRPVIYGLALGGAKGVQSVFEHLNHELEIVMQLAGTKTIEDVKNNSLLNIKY

[2] = molecular target: the molecule itself; assay: SEC; analytical SEC of the yellow, FMN-containing fraction; Superdex 200 Increase 10/300 calibrated with Bio-Rad standards; 30 mM Hepes pH 7.5, 350 mM NaCl, 0.5 mM TCEP
[3] = molecular target: the molecule itself; assay: SEC; recombinant AvLCTO, data not shown
[4] = substrate: C[C@H](O)C(=O)O; assay: purified protein; conditions: pH 6.5 (DMGA buffer), 37 °C, FMN added, air, L-lactate 0.2-2.0 mM, in-house recombinant enzyme

## Cc1cc2nc3c(=O)[nH]c(=O)nc-3n(C[C@H](O)[C@H](O)[C@H](O)COP(=O)(O)O)c2cc1C [FMN]
[1]
  X-ray crystallography, 1.9 Å (refolded with FMN: 6RHS, 2.6 Å); SEC: The hydrogen bonding network between FMN and the surrounding residues contains in total twelve interactions

B1: Pediococcus acidilactici lactate oxidase (enzyme)
chain: T1 sequence (E0NE46 1-369)
notes: putative L-lactate oxidase of Pediococcus acidilactici DSM 20284, Uniprot E0NE46; gene cloned from genomic DNA into pNH-TrxT; theoretical monomer mass 39 kDa; The same polypeptide without FMN (colourless fraction, or deflavinated) is a monomer that lacks secondary structure by CD; also called PaLCTO; WT PaLCTO; source: E. coli BL21 (DE3), purified (Ni-NTA, TEV cleavage, second Ni-NTA, SEC); not …
[2]
  stoichiometry N: 4

B2: Aerococcus viridans lactate oxidase (enzyme)
chain: MNNNDIEYNAPSEIKYIDVVNTYDLEEEASKVVPHGGFNYIAGASGDEWTKRANDRAWKHKLLYPRLAQDVEAPDTSTEILGHKIKAPFIMAPIAAHGLAHTTKEAGTARAVSEFGTIMSISAYSGATFEEISEGLNGGPRWFQIYMAKDDQQNRDILDEAKSDGATAIILTADSTVSGNRDRDVKNKFVYPFGMPIVQRYLRGTAEGMSLNNIYGASKQKISPRDIEEIAGHSGLPVFVKGIQHPEDADMAIKRGASGIWVSNHGARQLYEAPGSFDTLPAIAERVNKRVPIVFDSGVRRGEHVAKALASGADVVALGRPVLFGLALGGWQGAYSVLDYFQKDLTRVMQLTGSQNVEDLKGLDLFDNPYGYEY
notes: L-lactate oxidase of Aerococcus viridans, cloned from genomic DNA of strain DSM 20340; also called AvLCTO; recombinant AvLCTO; source: E. coli BL21 (DE3), purified
[3]
  stoichiometry N: 4
[4]
  Km: 520 ± 50 µM
